Measurements published in PMC3690454, “14-3-3 Proteins Interact with a Hybrid Prenyl-Phosphorylation Motif to Inhibit G Proteins” (Cell, 2013).
Square brackets hold non-standard residues; d marks the D form. Ends that are not written are not given here. * marks the point of attachment. Geranylgeranyl = CC(C)=CCC/C(C)=C/CC/C(C)=C/CC/C(C)=C/C*; Biotin = O=C1N[C@H]2[C@H](CS[C@H]2CCCCC(=O)*)N1; pS = N[C@@H](COP(=O)(O)O)C(=O)O; Ahx = NCCCCCC(=O)O

Target: T1, hexa-His-tagged 14-3-3ζ (UniProt P63104 1-245)
T1 construct: 14-3-3ζ, expressed essentially as in Kostelecky et al., 2009; eluted as a dimer of ~60 kDa; also called recombinant 14-3-3ζ; 14-3-3ζ domain; source: E. coli BL21(DE3) Star, purified (HisTrap, size-exclusion chromatography)
T1 sequence: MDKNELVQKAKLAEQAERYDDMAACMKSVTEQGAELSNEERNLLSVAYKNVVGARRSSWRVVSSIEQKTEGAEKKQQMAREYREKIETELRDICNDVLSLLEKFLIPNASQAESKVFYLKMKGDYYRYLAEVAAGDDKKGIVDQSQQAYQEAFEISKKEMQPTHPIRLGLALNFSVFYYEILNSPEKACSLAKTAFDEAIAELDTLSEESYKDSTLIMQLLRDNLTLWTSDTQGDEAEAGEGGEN
Assay: BLI; Octet RED96; biotinylated peptides immobilised on streptavidin biosensors; dilution series of 14-3-3ζ; 25 mM Tris, 150 mM NaCl, 0.1% Tween-20; KD of +P-F by steady-state analysis
Settings: both partners purified

B1: biotinylated Rap1A C-terminal peptide, phosphorylated and geranylgeranylated (peptide)
peptide: {Biotin-Ahx}-EKKKPKKK[pS]C(Geranylgeranyl)
notes: C terminus of Rap1A up to the prenylated C181; also called Rap1A peptide; source: synthetic peptide
Binder B1 has a Kd of roughly 25 nM.
